From the supplement of paper PMC11246515 come the findings set out here.

The series is described as follows: total protein half-life in vivo (active degradation + dilution); higher = more stable protein.
Where [1] appears, read: E. coli NCM3722 delta-clpP delta-lon delta-hslV, growth: N-lim chemostat, doubling time 6 h.
The mark [2] stands for this setting: E. coli NCM3722 delta-clpP, growth: N-lim chemostat, doubling time 6 h.
The mark [3] stands for this setting: E. coli NCM3722 delta-hslV, growth: N-lim chemostat, doubling time 6 h.
Setting [4] is: E. coli NCM3722 delta-lon, growth: N-lim chemostat, doubling time 6 h.
[5] abbreviates: E. coli NCM3722 delta-smpB, growth: N-lim chemostat, doubling time 6 h.
Setting [6] is: wild type E. coli NCM3722, growth: C-lim chemostat, doubling time 3 h.
[7] abbreviates: wild type E. coli NCM3722, growth: C-lim chemostat, doubling time 6 h.
Setting [8] is: wild type E. coli NCM3722, growth: C-lim chemostat, doubling time 12 h.
Where [9] appears, read: wild type E. coli NCM3722, growth: N-lim chemostat, doubling time 6 h.
The mark [10] stands for this setting: wild type E. coli NCM3722, growth: N-lim chemostat, doubling time 12 h.
[11] abbreviates: wild type E. coli NCM3722, growth: P-lim chemostat, doubling time 6 h.
Setting [12] is: wild type E. coli NCM3722, growth: P-lim chemostat, doubling time 12 h.

± gives the standard deviation of the averaged measurements.

Regarding “MNEQSQAKSPEALRAMVAGTLANFQHPTLKHNLTTLKALHHVAWMDDTLHVELVMPFVWHSAFEELKEQCSAELLRITGAKAIDWKLSHNIATLKRVKNQPGINGVKNIIAVSSGKGGVGKSSTAVNLALALAAEGAKVGILDADIYGPSIPTMLGAENQRPTSPDGTHMAPIMSHGLATNSIGYLVTDDNAMVWRGPMASKALMQMLQETLWPDLDYLVLDMPPGTGDIQLTLAQNIPVTGAVVVTTPQDIALIDAKKGIVMFEKVEVPVLGIVENMSVHICSNCGHHEPIFGTGGAEKLAEKYHTQLLGQMPLHISLREDLDKGTPTVISRPESEFTAIYRQLADRVAAQLYWQGEVIPGEISFRAV [P0AF08]”, the “total protein half-life in vivo” value stood at 5.1 ± 1 h under setting [1]; 4.454 ± 0.02 h under setting [2]; 3.96 ± 0.12 h under setting [3]; 4.15 ± 0.34 h under setting [4]; 3.876 ± 0.013 h under setting [5]; 2.87 ± 0.2 h under setting [6]. The “total protein half-life in vivo” value runs as follows: under setting [7], 5.22 ± 0.23 h; under setting [8], 9.46 ± 1.4 h; under setting [9], 3.71 ± 0.21 h; under setting [10], 5.9098 ± 0.00063 h; under setting [11], 5.19 ± 0.43 h; under setting [12], 9.96 ± 0.64 h.

As to “MEDLNVVDSINGAGSWLVANQALLLSYAVNIVAALAIIIVGLIIARMISNAVNRLMISRKIDATVADFLSALVRYGIIAFTLIAALGRVGVQTASVIAVLGAAGLAVGLALQGSLSNLAAGVLLVMFRPFRAGEYVDLGGVAGTVLSVQIFSTTMRTADGKIIVIPNGKIIAGNIINFSREPVRRNEFIIGVAYDSDIDQVKQILTNIIQSEDRILKDREMTVRLNELGASSINFVVRVWSNSGDLQNVYWDVLERIKREFDAAGISFPYPQMDVNFKRVKEDKAA [P0C0S1]”, the “total protein half-life in vivo” value came out at 6.89 ± 0.37 h under setting [1]; 7.53 ± 0.59 h under setting [2]; 6.91 ± 1.2 h under setting [4]; 5.91 ± 0.16 h under setting [5]; 6.24 ± 0.12 h under setting [7]; 12.81 ± 0.023 h under setting [8]. Further, the “total protein half-life in vivo” value under setting [10] worked out at 12.7 ± 0.82 h, the “total protein half-life in vivo” value under setting [11] turned out to be 6.423 ± 0.022 h and the “total protein half-life in vivo” value under setting [12] was found to be 13.2 ± 0.67 h.

Consider “MKRSISFRPTLLALVLATNFPVAHAAVPKDMLVIGKAADPQTLDPAVTIDNNDWTVTYPSYQRLVQYKTDGDKGSTDVEGDLASSWKASDDQKEWTFTLKDNAKFADGTPVTAEAVKLSFERLLKIGQGPAEAFPKDLKIDAPDEHTVKFTLSQPFAPFLYTLANDGASIINPAVLKEHAADDARGFLAQNTAGSGPFMLKSWQKGQQLVLVPNPHYPGNKPNFKRVSVKIIGESASRRLQLSRGDIDIADALPVDQLNALKQENKVNVAEYPSLRVTYLYLNNSKAPLNQADLRRAISWSTDYQGMVNGILSGNGKQMRGPIPEGMWGYDATAMQYNHDETKAKAEWDKVTSKPTSLTFLYSDNDPNWEPIALATQSSLNKLGIIVKLEKLANATMRDRVGKGDYDIAIGNWSPDFADPYMFMNYWFESDKKGLPGNRSFYENSEVDKLLRNALATTDQTQRTRDYQQAQKIVIDDAAYVYLFQKNYQLAMNKEVKGFVFNPMLEQVFNINTMSK”, for which the “total protein half-life in vivo” value reads like this: under setting [1], 4.61 ± 0.059 h; under setting [2], 5.72 ± 1.4 h; under setting [3], 5 ± 0.15 h; under setting [4], 5.74 ± 0.097 h; under setting [5], 5.02 ± 0.13 h; under setting [6], 2.73 ± 0.04 h. The “total protein half-life in vivo” value is, setting by setting: under setting [7], 4.77 ± 0.049 h; under setting [8], 7.85 ± 0.62 h; under setting [9], 5.26 ± 0.5 h; under setting [10], 7.37 ± 0.29 h; under setting [12], 12.42 ± 0.093 h.

For the sequence “MLEDLRANSWSLRPCCMVLAYRVAHFCSVWRKKNVLNNLWAAPLLVLYRIITECFFGYEIQAAATIGRRFTIHHGYAVVINKNVVAGDDFTIRHGVTIGNRGADNMACPHIGNGVELGANVIILGDITLGNNVTVGAGSVVLDSVPDNALVVGEKARVKVIK [P0ACC9]”, the “total protein half-life in vivo” value under setting [4] turned out to be 7.07 ± 0.2 h.

In the case of “MSILTRWLLIPPVNARLIGRYRDYRRHGASAFSATLGCFWMILAWIFIPLEHPRWQRIRAEHKNLYPHINASRPRPLDPVRYLIQTCWLLIGASRKETPKPRRRAFSGLQNIRGRYHQWMNELPERVSHKTQHLDEKKELGHLSAGARRLILGIIVTFSLILALICVTQPFNPLAQFIFLMLLWGVALIVRRMPGRFSALMLIVLSLTVSCRYIWWRYTSTLNWDDPVSLVCGLILLFAETYAWIVLVLGYFQVVWPLNRQPVPLPKDMSLWPSVDIFVPTYNEDLNVVKNTIYASLGIDWPKDKLNIWILDDGGREEFRQFAQNVGVKYIARTTHEHAKAGNINNALKYAKGEFVSIFDCDHVPTRSFLQMTMGWFLKEKQLAMMQTPHHFFSPDPFERNLGRFRKTPNEGTLFYGLVQDGNDMWDATFFCGSCAVIRRKPLDEIGGIAVETVTEDAHTSLRLHRRGYTSAYMRIPQAAGLATESLSAHIGQRIRWARGMVQIFRLDNPLTGKGLKFAQRLCYVNAMFHFLSGIPRLIFLTAPLAFLLLHAYIIYAPALMIALFVLPHMIHASLTNSKIQGKYRHSFWSEIYETVLAWYIAPPTLVALINPHKGKFNVTAKGGLVEEEYVDWVISRPYIFLVLLNLVGVAVGIWRYFYGPPTEMLTVVVSMVWVFYNLIVLGGAVAVSVESKQVRRSHRVEMTMPAAIAREDGHLFSCTVQDFSDGGLGIKINGQAQILEGQKVNLLLKRGQQEYVFPTQVARVMGNEVGLKLMPLTTQQHIDFVQCTFARADTWALWQDSYPEDKPLESLLDILKLGFRGYRHLAEFAPSSVKGIFRVLTSLVSWVVSFIPRRPERSETAQPSDQALAQQ”, the “total protein half-life in vivo” value amounted to 3.59 h under setting [1]; 3.59 ± 0.068 h under setting [2]; 3.23 ± 0.15 h under setting [3]; 3.25 ± 0.049 h under setting [5]; 2.31 ± 0.24 h under setting [6]; 3.01 ± 0.81 h under setting [7]. Also, the “total protein half-life in vivo” value under setting [8] was determined as 4.36 h, the “total protein half-life in vivo” value under setting [10] was found to be 8.41 h, the “total protein half-life in vivo” value under setting [11] is 3.59 ± 0.75 h and the “total protein half-life in vivo” value under setting [12] worked out at 6.3 ± 0.43 h.

As for “MFTGSIVAIVTPMDEKGNVCRASLKKLIDYHVASGTSAIVSVGTTGESATLNHDEHADVVMMTLDLADGRIPVIAGTGANATAEAISLTQRFNDSGIVGCLTVTPYYNRPSQEGLYQHFKAIAEHTDLPQILYNVPSRTGCDLLPETVGRLAKVKNIIGIKEATGNLTRVNQIKELVSDDFVLLSGDDASALDFMQLGGHGVISVTANVAARDMAQMCKLAAEGHFAEARVINQRLMPLHNKLFVEPNPIPVKWACKELGLVATDTLRLPMTPITDSGRETVRAALKHAGLL [P0A6L2]”, the “total protein half-life in vivo” value runs as follows: under setting [1], 4.22 ± 0.18 h; under setting [2], 3.67 ± 0.84 h; under setting [3], 3.03 ± 0.44 h; under setting [4], 4.05 ± 0.09 h; under setting [5], 3.42 ± 0.18 h; under setting [6], 3.09 ± 0.099 h. The “total protein half-life in vivo” value by setting is: under setting [7], 5.47 ± 0.57 h; under setting [8], 11.4 ± 0.21 h; under setting [9], 3.43 ± 0.14 h; under setting [10], 5.28 ± 0.1 h; under setting [11], 5.72 ± 0.24 h; under setting [12], 11.1 ± 0.94 h.
